Each block holds one substance with its values, some of them ahead of it.
Experiments:
Test in all cases: cross-linking
[1] = target: NS4B^HA (HA-tagged HCV NS4B, wild type, in NS3-5B-4B^HA) (hepatitis C virus)
[2] = target: NS5A^HA I15-TAG (azF) F36A/I37A/S38A/R112A/E148A (hepatitis C virus)
[3] = target: NS4B^HA A180-TAG (azF) (hepatitis C virus)
[4] = target: NS5A^HA W84-TAG (azF) (hepatitis C virus)
[5] = target: NS5A^HA W84-TAG (azF) D18A (hepatitis C virus)
[6] = target: NS4B^HA I96-TAG (azF) (hepatitis C virus)
[7] = target: NS4B^HA M80-TAG (azF) (hepatitis C virus)
[8] = target: HA-tagged GST V125-TAG (azF) (E. coli) (UniProt P0A9D2)
[9] = target: NS4B^HA K162-TAG (azF) (hepatitis C virus)

Substance: NS4B^HA (HA-tagged HCV NS4B, wild type, in NS3-5B-4B^HA) (natural protein)
stoichiometry N [1]: 2

Substance: NS5A^HA I15-TAG (azF) F36A/I37A/S38A/R112A/E148A (natural protein)
percent of the control level (% of the control level) [2]: 55

Substance: NS4B^HA A180-TAG (azF) (natural protein)
stoichiometry N [3]: 2

Substance: NS5A^HA W84-TAG (azF) (natural protein)
stoichiometry N [4]: 2

Substance: NS5A^HA W84-TAG (azF) D18A (natural protein)
percent of the control level (% of the control level) [5]: 66

Substance: NS4B^HA I96-TAG (azF) (natural protein)
stoichiometry N [6]: 2

Substance: NS4B^HA M80-TAG (azF) (natural protein)
stoichiometry N [7]: 2

stoichiometry N [8]: 2
Substance: HA-tagged GST V125-TAG (azF) (from UniProt P0A9D2 1-201) (enzyme)

Substance: NS4B^HA K162-TAG (azF) (natural protein)
stoichiometry N [9]: 2

— PMC8444619
